T1: C-terminal biotinylated human PAR-2 peptide SEQ ID NO:877 (Gly-40 to Ala) (human, not fully specified; C-terminal biotin (K-B))
T1 construct: alanine-scan mutant
T1 peptide: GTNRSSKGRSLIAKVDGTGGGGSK

T2: C-terminal biotinylated human PAR-2 peptide SEQ ID NO:876 (Ile-39 to Ala) (human, not fully specified; C-terminal biotin (K-B))
T2 construct: alanine-scan mutant
T2 peptide: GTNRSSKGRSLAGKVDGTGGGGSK

T3: C-terminal biotinylated human PAR-2 peptide SEQ ID NO:882 (Thr-45 to Ala) (human, not fully specified; C-terminal biotin (K-B))
T3 construct: alanine-scan mutant
T3 peptide: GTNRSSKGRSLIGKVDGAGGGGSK

T4: C-terminal biotinylated human PAR-2 peptide SEQ ID NO:874 (Ser-37 to Ala) (human, not fully specified; C-terminal biotin (K-B))
T4 construct: alanine-scan mutant
T4 peptide: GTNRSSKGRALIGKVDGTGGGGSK

T5: C-terminal biotinylated human PAR-2 peptide SEQ ID NO:881 (Gly-44 to Ala) (human, not fully specified; C-terminal biotin (K-B))
T5 construct: alanine-scan mutant
T5 peptide: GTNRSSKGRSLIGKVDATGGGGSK

T6: C-terminal biotinylated human PAR-2 peptide SEQ ID NO:878 (Lys-41 to Ala) (human, not fully specified; C-terminal biotin (K-B))
T6 construct: alanine-scan mutant
T6 peptide: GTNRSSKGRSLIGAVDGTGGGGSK

T7: C-terminal biotinylated human PAR-2 peptide SEQ ID NO:871 (wild-type) (human, not fully specified; C-terminal biotin (K-B))
T7 construct: also called WT peptide
T7 peptide: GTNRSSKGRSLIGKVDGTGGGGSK

T8: C-terminal biotinylated human PAR-2 14-mer peptide SEQ ID NO:885 (Val-42 to Ala) (human, not fully specified; C-terminal biotin (K-B))
T8 peptide: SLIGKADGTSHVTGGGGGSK

T9: C-terminal biotinylated human PAR-2 14-mer peptide SEQ ID NO:887 (Val-42 and Asp-43 to Ala) (human, not fully specified; C-terminal biotin (K-B))
T9 peptide: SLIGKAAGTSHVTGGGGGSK

T10: C-terminal biotinylated human PAR-2 14-mer peptide SEQ ID NO:884 (SLIGKVDGTSHVTG, wild-type) (human, not fully specified; C-terminal biotin (K-B))
T10 peptide: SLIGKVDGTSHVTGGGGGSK

T11: C-terminal biotinylated human PAR-2 14-mer peptide SEQ ID NO:886 (Asp-43 to Ala) (human, not fully specified; C-terminal biotin (K-B))
T11 peptide: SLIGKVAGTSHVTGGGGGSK

T12: C-terminal biotinylated human PAR-2 peptide SEQ ID NO:873 (Arg-36 to Ala) (human, not fully specified; C-terminal biotin (K-B))
T12 construct: alanine-scan mutant
T12 peptide: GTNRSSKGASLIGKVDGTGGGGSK

T13: C-terminal biotinylated human PAR-2 peptide SEQ ID NO:880 (Asp-43 to Ala) (human, not fully specified; C-terminal biotin (K-B))
T13 construct: alanine-scan mutant
T13 peptide: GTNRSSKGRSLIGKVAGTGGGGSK

T14: C-terminal biotinylated human PAR-2 peptide SEQ ID NO:879 (Val-42 to Ala) (human, not fully specified; C-terminal biotin (K-B))
T14 construct: alanine-scan mutant
T14 peptide: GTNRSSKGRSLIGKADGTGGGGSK


Assays:
Assay in all cases: BLI Exp2
[1] = molecular target: T1, C-terminal biotinylated human PAR-2 …
Method: (§1) In order to more particularly identify the amino acids of PAR-2 with which the PAR-2 antibodies interact, an alanine scanning study was carried out using peptides comprising the activating PAR-2 protease cleavage site.
(§2) The ability of each peptide mutant to bind to PAR-2 antibodies was measured using biolayer interferometry (Octet Red; ForteBio). Each peptide (2.5 μg/ml) was captured on streptavidin coated biosensor tips (Octet SA sensor) for 10 seconds. To measure binding and dissociation between each peptide and PAR-2 antibody, the peptide-coated biosensors were contacted with 200 nM solutions of PAR-2 antibodies for 5 minutes (binding) followed by transfer to buffer with no antibody for 10 min (dissociation). […] The results are expressed as percent binding and percent T_{1/2} relative to WT peptide (Tables 24-28).

[2] = molecular target: T2, C-terminal biotinylated human PAR-2 …
Method: as §1, §2

[3] = molecular target: T3, C-terminal biotinylated human PAR-2 …
Method: as §1, §2

[4] = molecular target: T4, C-terminal biotinylated human PAR-2 …
Method: as §1, §2

[5] = molecular target: T5, C-terminal biotinylated human PAR-2 …
Method: as §1, §2

[6] = molecular target: T6, C-terminal biotinylated human PAR-2 …
Method: as §1, §2

[7] = molecular target: T7, C-terminal biotinylated human PAR-2 …
Method: as §1, §2

[8] = molecular target: T8, C-terminal biotinylated human PAR-2 …
Method: as §1, §2

[9] = molecular target: T9, C-terminal biotinylated human PAR-2 …
Method: as §1, §2

[10] = molecular target: T10, C-terminal biotinylated human PAR-2 …
Method: as §1, §2

[11] = molecular target: T11, C-terminal biotinylated human PAR-2 …
Method: as §1, §2

[12] = molecular target: T12, C-terminal biotinylated human PAR-2 …
Method: as §1, §2

[13] = molecular target: T13, C-terminal biotinylated human PAR-2 …
Method: as §1, §2

[14] = molecular target: T14, C-terminal biotinylated human PAR-2 …
Method: as §1, §2

% Rel Binding [1] [%]	% Rel T1/2 [1] [%]	% Rel Binding [2] [%]	% Rel T1/2 [2] [%]	% Rel Binding [3] [%]	% Rel T1/2 [3] [%]	% Rel Binding [4] [%]	% Rel T1/2 [4] [%]	% Rel Binding [5] [%]	% Rel T1/2 [5] [%]	% Rel Binding [6] [%]	% Rel T1/2 [6] [%]	% Rel Binding [7] [%]	% Rel T1/2 [7] [%]	% Rel Binding [8] [%]	% Rel T1/2 [8] [%]	binding result [9]	% Rel Binding [10] [%]	% Rel T1/2 [10] [%]	binding result [11]	Binder	further results
92	15	14	0	91	94	56	3	102	124	109	49	100	100	19	0	no binding (tested: 200 nM antibody)	100	100	no binding (tested: 200 nM antibody)	H4H581P (antibody, human IgG4, V domains shown, also called mAb H4H581P; H1H581P variable regions) VH: QVQLVESGGGVVQPGRSLRLSCVASGFTFSRYGIHWVRQAPGKGLEWVIVISYDGINKYYADSVKGRFTISRDNSKNTVYLQMNSLRAEDTAVYYCAKGDFWSGYFDYWGQGTLVTVSS VL: DIVMTQTPLSSPVTLGQPASISCRSSQSLVHSDGNTYLSWLHQRPGQPPRLLIYKISNRFSGVPDRFSGSGAGTDFTLQISRVEAEDVGIYYCMQATQFPTFGGGTKVEIK	% Rel Binding [12]: 105%; % Rel T1/2 [12]: 90%; % Rel Binding [13]: 5%; % Rel T1/2 [13]: 4%; % Rel Binding [14]: 46%; % Rel T1/2 [14]: 1%
30	0	85	8	121	33	93	70	67	1	121	60	100	100	83	0	no binding (tested: 200 nM antibody)	100	100	no binding (tested: 200 nM antibody)	H4H588N (antibody, human IgG4, V domains shown, also called H2M588N variable regions) VH: EVQLLESGGGLVQPGGSLRLSCAASGFTFSSYAMTWVRQAPGKGLYWVSAISGGRGSAYYADSVKGRFTISRDNSKNTLYLQMNSLRAEDTAVYYCAKEGDSGYDLAYWGRGTLVTVSS VL: DIQMTQSPSSLSASVGDRVTITCRARQGISNNLAWLQQKPGKAPKSLIYAASSLQSGIPSKFSGSGSGTYFTLTISSLQPEDFATYYCQQYKSSPLTFGGGTKVEIK	% Rel Binding [12]: 115%; % Rel T1/2 [12]: 180%; % Rel Binding [13]: 8%; % Rel T1/2 [13]: 5%; % Rel Binding [14]: 52%; % Rel T1/2 [14]: 0%
